In article PMC3166883:
pKd: −log10 of the molar value.

What was measured:
[1] = molecular target: MART-1/Melan-A (anchor-modified decamer, modified at position 2) peptide on HLA-A*02:01 (human); test: SPR
[2] = molecular target: MART-1/Melan-A peptide on HLA-A*02:01 (human); test: SPR

| pKd [1] | pKd [2] | Substance |
| --- | --- | --- |
| 4.54 |  | DMF4 |
| 5.22 | 4.40 | DMF5 |
